Reference: the supplement of paper PMC10567573

B1: ZBED3 (parent)
chain: GPGFHAGTSALWRHLRSAHRRELE
B2: TRAF3IP2 (parent)
chain: KEHVPTWLQNTHVYSWPKNKKNIL

Variants of: B1
Experiment: protein stability index of a GFP-peptide fusion (GPS, HEK-293T) (PSI 1-6); higher = more stable
Conditions: c terminus: a fixed tail appended
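Also: lentivirally expressed fusions sorted by FACS into six bins by GFP to DsRed ratio, PSI derived from sequencing read proportions per bin multiplied by bin number.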

First: S17H
Second: S17F
The protein stability index of the first is lower: 1.85 for the first, 2.25 for the second.

Compared with S17A, S17T is higher in protein stability index: 2.14 for the first, 2.65 for the second.

Compared with S17L, S17W is lower in protein stability index: 3.44 for the first, 3.17 for the second.

First: S17P
Second: S17Y
The protein stability index of the first is lower: 1.9 for the first, 2.38 for the second.

Compared with S17R, S17N is lower in protein stability index: 2.42 for the first, 1.69 for the second.

First: H19K
Second: H19N
The protein stability index of the first is higher: 2.54 for the first, 1.58 for the second.

Going from H19M to H19D, the protein stability index rises from 1.73 to 2.03.

First: H19A
Second: H19F
The protein stability index of the first is lower: 2.74 for the first, 2.84 for the second.

Going from H19R to H19I, the protein stability index falls from 2.68 to 2.3.

Going from H19V to H19S, the protein stability index falls from 3.03 to 2.29.

Going from H19T to H19Q, the protein stability index rises from 2.14 to 2.2.

Going from H19G to H19C, the protein stability index rises from 2.14 to 2.7.

First: H19E
Second: H19Y
The protein stability index of the first is lower: 2.21 for the first, 2.5 for the second.

Going from H19W to S9D, the protein stability index rises from 2.14 to 2.99.

Going from S9L to S9F, the protein stability index falls from 3.28 to 2.23.

First: S9V
Second: S9C
The protein stability index of the first is lower: 1.92 for the first, 2 for the second.

Compared with S9Q, S9T is higher in protein stability index: 2.96 for the first, 3.06 for the second.

Going from S9N to S9A, the protein stability index falls from 2.68 to 2.11.

Compared with S9H, S9G is lower in protein stability index: 2.53 for the first, 1.71 for the second.

Going from S9R to H14S, the protein stability index falls from 3.03 to 2.2.

Going from H14I to H14D, the protein stability index rises from 1.78 to 2.13.

First: H14M
Second: H14G
The protein stability index of the first is lower: 1.99 for the first, 2.76 for the second.

First: H14K
Second: H14L
The protein stability index of the first is lower: 2.2 for the first, 2.62 for the second.

First: H14P
Second: H14A
The protein stability index of the first is lower: 2.1 for the first, 2.3 for the second.

Going from E24P to E24V, the protein stability index rises from 1.93 to 2.11.

Compared with E24S, E24R is higher in protein stability index: 1.97 for the first, 2.96 for the second.

First: E24C
Second: E24L
The protein stability index of the first is lower: 1.65 for the first, 2 for the second.

First: E24Y
Second: E24M
The protein stability index of the first is lower: 2.42 for the first, 2.78 for the second.

First: E24I
Second: E24G
The protein stability index of the first is higher: 2.65 for the first, 1.76 for the second.

Going from E24H to P2I, the protein stability index rises from 1.85 to 2.8.

Compared with P2T, P2Q is higher in protein stability index: 3.01 for the first, 4.32 for the second.

Compared with P2M, P2E is higher in protein stability index: 2.53 for the first, 3.53 for the second.

Going from P2N to P2G, the protein stability index falls from 3.5 to 3.2.

Compared with P2F, P2K is higher in protein stability index: 1.89 for the first, 3.06 for the second.

Going from P2S to P2Y, the protein stability index falls from 2.92 to 2.54.

Compared with R13V, R13H is higher in protein stability index: 1.88 for the first, 1.98 for the second.

Compared with R13M, R13N is higher in protein stability index: 1.99 for the first, 2.13 for the second.

Going from R13T to R13E, the protein stability index rises from 1.99 to 2.14.

R13W and L15A are the same in protein stability index: 1.93 for the first, 1.93 for the second.

Compared with L15I, L15Y is lower in protein stability index: 2.3 for the first, 2.1 for the second.

First: L15K
Second: L15P
The protein stability index of the first is higher: 3.15 for the first, 1.76 for the second.

First: L15W
Second: L15H
The protein stability index of the first is higher: 2.7 for the first, 2.34 for the second.

Going from L15T to L15F, the protein stability index rises from 2.05 to 2.16.

Going from L15N to W12M, the protein stability index falls from 2.57 to 1.84.

Compared with W12C, W12S is higher in protein stability index: 1.45 for the first, 2.61 for the second.

First: W12P
Second: W12K
The protein stability index of the first is lower: 2.14 for the first, 3.18 for the second.

Going from W12N to W12A, the protein stability index rises from 2.3 to 3.38.

W12E showed a protein stability index of 3.17.

Variants of: B2
Experiment: as above
Conditions: c terminus: a fixed tail appended

Going from E2A to E2R, the protein stability index rises from 1.94 to 3.4.

Compared with E2W, E2P is higher in protein stability index: 1.57 for the first, 2.25 for the second.

Going from E2Q to E2T, the protein stability index rises from 2.15 to 2.33.

First: E2S
Second: E2M
The protein stability index of the first is higher: 2.53 for the first, 2.5 for the second.

Compared with E2I, E2V is higher in protein stability index: 1.58 for the first, 2.15 for the second.

Compared with E2F, E2C is lower in protein stability index: 1.7 for the first, 1.54 for the second.

Compared with E2D, E2N is lower in protein stability index: 2.47 for the first, 2.14 for the second.

Going from E2Y to E2H, the protein stability index rises from 2.07 to 2.08.

Compared with E2L, E2G is higher in protein stability index: 1.67 for the first, 1.93 for the second.

Compared with E2K, V4G is higher in protein stability index: 2.13 for the first, 2.81 for the second.

Compared with V4I, V4E is higher in protein stability index: 1.74 for the first, 3.23 for the second.

Going from V4F to V4H, the protein stability index rises from 2.07 to 2.25.

Compared with V4N, V4P is lower in protein stability index: 3.44 for the first, 2.85 for the second.

Going from V4K to V4L, the protein stability index rises from 2.43 to 3.21.

Compared with V4C, V4A is higher in protein stability index: 1.87 for the first, 2.39 for the second.

First: V4M
Second: V4Q
The protein stability index of the first is lower: 2.35 for the first, 3.54 for the second.

First: V4R
Second: V4D
The protein stability index of the first is lower: 2.69 for the first, 3.29 for the second.

Compared with K1C, K1H is higher in protein stability index: 2.26 for the first, 2.58 for the second.

Compared with K1G, K1I is lower in protein stability index: 3.22 for the first, 1.94 for the second.

Going from K1V to K1Y, the protein stability index falls from 2.78 to 1.93.

Going from K1F to K1M, the protein stability index rises from 1.69 to 2.33.

Compared with K1D, K1N is higher in protein stability index: 2.93 for the first, 3.12 for the second.

First: K1W
Second: K1Q
The protein stability index of the first is lower: 1.98 for the first, 2.67 for the second.

First: K1R
Second: K1S
The protein stability index of the first is lower: 2.42 for the first, 2.76 for the second.

Compared with K1T, K1P is lower in protein stability index: 2.71 for the first, 1.97 for the second.

Compared with K1E, K1A is higher in protein stability index: 3.06 for the first, 3.11 for the second.

Compared with K1L, H3I is lower in protein stability index: 2.56 for the first, 2.53 for the second.

Compared with H3L, H3R is lower in protein stability index: 2.6 for the first, 2.21 for the second.

First: H3K
Second: H3T
The protein stability index of the first is higher: 2.83 for the first, 2.72 for the second.

Compared with H3E, H3V is higher in protein stability index: 2.51 for the first, 2.69 for the second.

First: H3G
Second: H3W
The protein stability index of the first is higher: 3.19 for the first, 2.02 for the second.

Compared with H3M, H3C is lower in protein stability index: 2.46 for the first, 2.42 for the second.

First: H3S
Second: H3D
The protein stability index of the first is lower: 2.58 for the first, 2.85 for the second.

First: H3Y
Second: H3N
The protein stability index of the first is lower: 2.03 for the first, 3.17 for the second.

First: H3A
Second: H3Q
The protein stability index of the first is lower: 2.54 for the first, 2.62 for the second.

First: H3P
Second: H3F
The protein stability index of the first is higher: 3.67 for the first, 2.16 for the second.
